Experimental data published in the supplement of paper PMC10567573.

B1: PSD2 (parent)
chain: PLMGETQERERVLTHFSRRYCQCN

Variants of: B1
Assay: protein stability index of a GFP-peptide fusion (GPS, HEK-293T) (PSI 1-6); higher = more stable
Conditions: c terminus: a fixed tail appended
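Note: lentivirally expressed fusions sorted by FACS into six bins by GFP to DsRed ratio, PSI derived from sequencing read proportions per bin multiplied by bin number.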

Variant	protein stability index
N24Y	2.22
N24T	3.74
N24S	3.38
N24R	2.14
N24A	3.04
Q7R	2.26
Q7P	2.77
Q7Y	2.82
Q7C	3.6
Q7D	3.72
L2N	3.42
L2S	3.19
L2M	2.56
L2E	3.91
L2I	3.17
L2K	2.57
L2V	3.35
R11E	3.98
R11V	3.46
R11K	2.87
R11S	2.53
R11A	3.42
R11F	1.85
R11I	2.35
R11P	3.02
R11H	3.73

Variant	protein stability index
R11C	3.88
R11M	2.64
R11W	2.19
R9Y	2.14
R9E	4.05
R9N	4.17
R9W	1.46
R9S	2.49
R9V	2.94
R9T	2.58
R9A	3.5
R9H	3.23
R9K	3.21
R9M	2.16
P1F	2.48
P1R	4.31
P1T	2.58
P1W	2.3
P1C	2.34
P1S	2.98
P1I	2.04
P1L	1.67
R18W	1.79
R18K	3.09
R18N	3.06
R18Q	2.77

Variant	protein stability index
R18Y	1.97
R18E	4.21
R18D	4.01
L13K	3.57
L13Q	3.5
E5M	1.87
E5T	2.09
E5P	2.94
E5F	2.74
E5A	2.78
E5G	2.46
E5I	2.64
E5D	2.38
G4Q	2.43
G4K	2.6
G4P	3.62
G4E	3.95
T6C	4.24
T6W	2.83
T6E	3.05
T6A	3.27
T6R	2.95
T6I	2.38
T6V	2.44
E8P	2.27
E8A	2.03

Variant	protein stability index
E8G	2.35
E8H	1.97
E8M	1.62
E8R	2.78
T14N	2.63
T14V	2.69
T14F	2.63
T14A	2.62
H15E	4.15
H15T	3.03
H15V	2.31
H15C	2.9
H15F	1.47
H15W	1.2
C21H	2.62
C21A	3.46
C21N	3.29
C21M	3.61
C21V	3.68
C21E	3.81
C21I	3.06
C21S	3.53
C21L	3.23
C21W	3.17
F16W	2.1
F16K	3

Variant	protein stability index
F16P	3.9
F16C	4.41
M3D	3.69
M3R	2.44
V12K	2.96
V12C	4.07
V12Q	3.6
S17K	2.95
S17I	1.49
S17V	2.44
S17G	3.85
Q22N	3.18
Q22F	2.42
Q22V	1.69
Q22H	2.62
Q22I	2.09
Q22M	2.1
Q22L	2.39
Q22E	3.96
C23R	3.6
C23K	4.92
C23V	3.56
C23S	3.87
C23M	2.92
C23T	3.87
C23N	4.07

Variant	protein stability index
E10V	2.31
E10C	2.92
E10I	2.1
E10Q	2.33
E10A	2.07
Y20V	4.11
Y20H	2.43
Y20S	3.84
Y20K	3.92
Y20L	3
Y20E	4.57
Y20D	4.19
Y20N	3.81
R19I	2.54
R19S	3.28
R19T	3.21
R19Y	1.98
R19D	3.25
R19G	3.71
R19A	2.98
R19K	3.17
R19C	3.28
